Data reported in publication PMC3767815, “A Novel α-L-Arabinofuranosidase of Family 43 Glycoside Hydrolase (Ct43Araf) from Clostridium thermocellum” (PLoS ONE, 2013).

B1: CtGH43 (Acetivibrio thermocellus ATCC 27405) (protein)
chain: AADYPIFSQRFTADPAAVVYNGRLYIYCSHDSDATPGQSTYNIPDITCISTDDLKNWTDHGEVFNAKRDSRWASVSWAPSIVYRNNKFYLYYGNGGNGIGVAVSDSPTGPFKDPLPGPLVSWNTPGVQPAQNMWLFDPGVFVDDDGQAYMYFGGNGQNNIRVIKLGNDMISTVGSAMTMSAPRFFEAAYMHKYNGKYYFSYASDFSQGASKIEYMMSDKPTTGFQYKGVILPQPPDNYSNNNHHAIVEYKGNWYVVYHNRTVAKQRGLDPVYQRNVCIDQMFYNADGTIKQVVPTVDGLKQ
notes: truncated: N-terminal GH43 catalytic module only (903 bp), both CBM6 removed; His6-tagged, pET-28a(+), E. coli BL21(DE3) pLysS; 34 kDa
B2: Ct43Araf (Acetivibrio thermocellus ATCC 27405) (protein)
chain: AADYPIFSQRFTADPAAVVYNGRLYIYCSHDSDATPGQSTYNIPDITCISTDDLKNWTDHGEVFNAKRDSRWASVSWAPSIVYRNNKFYLYYGNGGNGIGVAVSDSPTGPFKDPLPGPLVSWNTPGVQPAQNMWLFDPGVFVDDDGQAYMYFGGNGQNNIRVIKLGNDMISTVGSAMTMSAPRFFEAAYMHKYNGKYYFSYASDFSQGASKIEYMMSDKPTTGFQYKGVILPQPPDNYSNNNHHAIVEYKGNWYVVYHNRTVAKQRGLDPVYQRNVCIDQMFYNADGTIKQVVPTVDGLKQLKYVDPYTKNLAVTMHKESGIETEECSEGGRNVAFIENGDWIQVKGVDFGNVGPTSFEARVASATNGGNIEIRLDSPTGTLIGTCKVEGTGDWQKWVTKTCSVSKVTGVHDLFFRFTGGSGYLFNFSWWKFNSDATPTPTPPPQPSTVPVTERSAFSKIEVEDFNDIKSSTIQKIGTPNGGSGIGYIENGDWLAYKNIDFGNGATTFKALVASTLSPNIELRLDSPTGTLIGTLKVAATGGFNAYEEQSCNISKVTGKHDLYLVFSGAVNIDWFTFGGSSGII
notes: CtGH43-CtCBM6A-CtCBM6B; His6-tagged, pET-21a(+), E. coli BL21(DE3); 63 kDa; gene range printed 1545911 to 1547651; modules 903, 405 and 402 bp; forward primer starts at AADYP

Tests used:
[1] = substrate: O=[N+]([O-])c1ccc(O[C@@H]2OC[C@H](O)[C@H](O)[C@H]2O)cc1; experiment: purified protein; assay type: biochemical, Acetivibrio thermocellus; conditions: 50°C, 20 mM sodium phosphate pH 5.7 (table note; methods print 50 mM sodium phosphate pH 6.0), substrate 20–500 µM
[2] = substrate: O=[N+]([O-])c1ccc(O[C@@H]2O[C@@H](CO)[C@H](O)[C@H]2O)cc1; experiment: purified protein; assay type: biochemical, Acetivibrio thermocellus; conditions: 50°C, 20 mM sodium phosphate pH 5.7 (table note; methods print 50 mM sodium phosphate pH 6.0), substrate 20–500 µM

Protein	Km [1]	kcat [1]	Km [2]	kcat [2]
B1	0.097 ± 0.004 mg/mL	3.533 ± 0.0333 s⁻¹	0.04 ± 0.004 mg/mL	4.783 ± 0.0167 s⁻¹
B2	0.093 ± 0.003 mg/mL	3.5 ± 0.0783 s⁻¹	0.05 ± 0.002 mg/mL	4.717 ± 0.0333 s⁻¹
